Test results taken from the DeepSol protein solubility set.

Test: soluble on expression in E. coli; label from the status in PepcDB or PDB records

Sequence: MELVHEIAIDPNFQIPDKPTNAIQRCVQESMHKAYYNQLRRDLAKDPPELEYCFSFLMEVKTMILDDILTAQHTRLKAEINSMLDETALRGKLDQGQLDIKKVMKYIVDLCSRLCSPARDVKVAELRTRTDVIDIFEGTMDLLELMKNDLTNYQISQNRAAIEEYSSKHEYDMFQKFLIENPNGCYFARQWLKAAYDELFEKKLDAEGEETSVKKERKNEDTDTVLIDTTSRGYTKLIQVNEYDGFPETLKIDKIKIELLAEKFLQIVMCASSVFVTCNVAGKQISESADFKKTLKDHLIVITNNTDEERIKSDLEKIGEQCVKEAVDTSKKLNIEWNTESSTSIRNQINALISSDNPIRKLVHTRVSTFVEEMLRSPTSVPHRLLPGLSVIQSELCAFTSKFLRLCVHNRKTFYAMYSNLIQEFQGHTPSTHAIYRADSPSSMPGPSTSA
- soluble on expression in E. coli: not soluble

Sequence: VREVCSEQAETGPCRAMISRWYFDVTEGKCAPFFYGGCGGNRNNFDTEEYCMAVCGSA
- soluble on expression in E. coli: soluble

Sequence: MGSDKIHHHHHHEADNYEPPKVDLKDQIPIILIHGSGGNASSLDKMADQLMNEYRSSNEALTMTVNSEGKIKFEGKLTKDAKRPIIKFGFEQNQATPDDWSKWLKIAMEDLKSRYGFTQMDGVGHSNGGLALTYYAEDYAGDKTVPTLRKLVAIGSPFNDLDPNDNGMDLSFKKLPNSTPQMDYFIKNQTEVSPDLEVLAIAGELSEDNPTDGIVPTISSLATRLFMPGSAKAYIEDIQVGEDAVHQTLHETPKSIEKTYWFLEKFKTDETVIQLDYK
- soluble on expression in E. coli: not soluble

Sequence: MSLSVSDELQLFAQEIQRFLSPNTLRNLARDVGFVQRTSKYQAKDLVALCVWMNQNIATTSLTQLSSCLEASTEVLISPEGLNQRFNKAAVQFLQHILAELLSRKLTSSIPISSPYTSVFKRIRILDSTAFQLPDVFSSVYPGAGGCSHTAGIKIQLEYDLLSGQFLHIHTGPGKQHDRTYGSLCAPTVTANDLCIRDLGYFHLKDLQYIQDKEAYYISRIKSNTRMYQKNPNPDYFQDGRIKKGTEYIQIDIETLMNSLQPGQTCEVADAYVGMNDKVPARVIVHRLTKQQQQKRLQDQAVREKKKGMKYSPRSKRLSGINVYMTNTPTDIVPMGQVHDWYSLRWQIEILFKTWKSFFQIHHCKKIKAERLECHLYGQLIAILLCSSIMFQMRQLLLMKKKRELSEYKAIYMIKDYFLLLFQTIQKNTQELSKVLLRLFNLLQQNGRKSHRYEKKTVFDILGVVYNSMSDNQAEGHHHHHH
- soluble on expression in E. coli: not soluble

Sequence: MENKSIAIFIDAENIPAKYAKSIFDIASDYGEVIIKRIYGDWTQKNIQGWREQIAEYSLIAMQQFNFAANKNSSDMYLITEIMSIFYEKNIDIFVIVSSDSDYTSLIQKLRENKKQVIGMGLEKSIKSYVNAFSEFFYLDKDESKKEDILSKDYLRALINITEQLIDEKGRAEYAQIRTNMNRKYSDFHPQNYGFKNFRALIQKFLPKMKKFEEEREKNIYFLVKKDYESYYLEHHHHHH
- soluble on expression in E. coli: not soluble

Sequence: MADNLPSDFDVIVIGTGLPESIIAAACSRSGQRVLHVDSRSYYGGNWASFSFSGLLSWLKEYQENNDVVTENSMWQEQILENEEAIPLSSKDKTIQHVEVFCYASQDLHKDVEEAGALQKNHASVTSAQSAEAAEAAETSCLPTAVEPLSMGSCEIPAEQSQCPGPESSPEVNDAEATGKKENSDAKSSTEEPSENVPKVQDNTETPKKNRITYSQIIKEGRRFNIDLVSKLLYSRGLLIDLLIKSNVSRYAEFKNITRILAFREGTVEQVPCSRADVFNSKQLTMVEKRMLMKFLTFCVEYEEHPDEYRAYEGTTFSEYLKTQKLTPNLQYFVLHSIAMTSETTSCTVDGLKATKKFLQCLGRYGNTPFLFPLYGQGELPQCFCRMCAVFGGIYCLRHSVQCLVVDKESRKCKAVIDQFGQRIISKHFIIEDSYLSENTCSRVQYRQISRAVLITDGSVLKTDADQQVSILTVPAEEPGSFAVRVIELCSSTMTCMKGTYLVHLTCMSSKTAREDLERVVQKLFTPYTEIEAENEQVEKPRLLWALYFNMRDSSDISRDCYNDLPSNVYVCSGPDSGLGNDNAVKQAETLFQQICPNEDFCPAPPNPEDIVLDGDSSQQEVPESSVTPETNSETPKESTVLGNPEEPSE
- soluble on expression in E. coli: soluble

Sequence: MSEKDQSVNNTEEDFNVETEDNQNDTNIENSVSNTDNSEANASDSENNSEESIKDEESESQDTKIKELEKLANDNEEKYLRLYAEFENYKRRIQKENQINATYKAQGVLTDILPSIDNIERALQIEGDDESFKSLQKGVQMVHESLLRALKDNGLEEILAEGKEFDPNLHQAVVQDDNPDFKSGEVTQELQKGYKLKDRVLRPSMVKVNQ
- soluble on expression in E. coli: soluble

Sequence: MGSDKIHHHHHHMYYLSFSISSNCGLSAAAEHLQNKIVTLNVINSTDFNTVIAFTLARDIDAMRNDFAKDFKTVYIARGKKAAFINGTKISHGIVPAMISEQIIPLYPIFAENGSEWFNAIVLEKEHIDNFVALIEKKNNIETLDYERIRNGDSMFSIIKNANRGIFTLELTETERRIVNSSLRQGFFSWPRSYDLTSISREFGLTKPTILYHIRNAERKVMEALFGS
- soluble on expression in E. coli: not soluble

Sequence: MPSKQDVLLLDYWDQWAEAYRINGKSINTVYRYKLFRKHLKSRFDGRKLNSIRPIEWQKFINDFAAGKDRKEKTTRKRPRERSKDIVTKMNSYVRGMVKAAINERILFSDFTFGTKTSGVRLEHHHHHH
- soluble on expression in E. coli: not soluble

Sequence: MGSDKIHHHHHHMEHLLEVNNLSVSFKVEEGEVQAVRNVSFNLKKGETLAIVGESGCGKSVLCKSLMRILPYNGYIKNGEVLLKSSDLVKKSEKEMEDIRGKNISMIFQDPMTSLNPTISIGKQIAEAVIIHQGISKSEAKKRAIELIELVGIDNPEKRFKQFPHHFSGGMRQRIVIAIALACNPDVLIADEPTTALDVTIQAQIIDLIKDLQHKIGLSIIFITHDLGVVATIADRIAVMYAGKIVEIGTVEDIFYDPRHPYTWGLLGSLPTLDSQDDYLYNIPGMPPNLLNPPKGDAFAIRNKNALKIDYEKEPPMFKINDTHSAATWLLHPDAPEVDVPVRVNCGRVISNE
- soluble on expression in E. coli: not soluble

Sequence: MGKEERAKWVNDEYAKAYEKMKSYGEQVKKADKPRVLYLKRSDLTLQGNDNFIKESMELAGADNIAAEAKSITMEEILKLDPEIILLSDFDKFLPQDLYENRIEGQDWSSVSAVVNKRVYKTPVGIYRWDAPGVETPLMMFWLGKMLQPEILEHHHHHH
- soluble on expression in E. coli: not soluble

Sequence: EIILNASAMFNHSNAKLALSIDKKLRKVIVTPDMHRVHHSVMVKETHSNFGFFLSVWDRWFGTYRAQPALGHNDVVIGVPEIREASEQRLDKLLTQPFRYREGKGKNVD
- soluble on expression in E. coli: not soluble

Sequence: MGSDKIHHHHHHVRVPLLDRDHPRYGNDRFWPGMRAELAKLWRERGHAPILNPPRPRARTHKIQESRSMHLEVLRVPPTTADPEMADRPPLVFVHGAFAGAWCWRETFMPWFAARGWDTHALSLRGHGASDGAERLDSTRLADYADDLRRVIDELDRPPVLIGHSMGGMVVQKVLEDTQAAAAVLLASVPPTGLFSGSVLMALRHPLLCMALWRIQTFGPEEASLRMVEAGLFSTPLDAREAERYTALLQNESSRVVLDMTWFDVPRRRCPQELPLLVLGAEDDAFVPPIEVLATAAFHGTTAQLLPDIGHAMMLDRGWEKTASVMEEWLRCSAF
- soluble on expression in E. coli: not soluble

Sequence: VEADSNIGYNATFGYQKPMGGAGAYWGMEFGLGSRGFKADEMKCIAHNIQYSPFTFGWKIGVADNLSIDPHLGVFASYDYTSKMKESGESISWGDFADYLEVDYNHFDAGMNIGVGLWYDRFNLDFTYQRGFIDVFSDLDGIKTSNFMIRLGIAF
- soluble on expression in E. coli: not soluble

Sequence: MYTNRWEGLDEFVAVAECGQFTAAALRLGVSSSHVSRQIVRLEERLQTRLLYRSTRKVALTEAGQTFLHHCQRLQDGREEALRAVGDLASEPKGLLRMTCAVAYGERFITPLVTRFMELYPQLRVDIELSNDTLDLVHEGMDLAIRLGRLQDSRMVATRLAPRQMYLCASPSYLERYGRPHSLSELSRHNCLIGGSDTWQLQQNGREFSQRVQGNWRCNSGQAVLDAALQGVGLCQLPDYYVQKHLKEGALVSLLEAHQPPNTAVWALYPQQRHLSPKVRKLVDYLKEGLAMQDEYRQ
- soluble on expression in E. coli: not soluble

Sequence: MNIIDFRFRPNTEAILKGISSNPAFKGMCQSIDFNKMLPQTLEEVVEELDRHHVVKAVISGRDCETTYGAKSNNPSVIEFCHKFPDKFIGFAGLDPHKGMAALAEITHAVHEEGIKGAAIDPYLARIYVNDAKYYPIYAKCCELGIPLIIATGPGTLVPNAVIDHVAPRYIDFVARDFPELKIIASHGGYPWVNEMITVAQRNANVYLELSEYEFFPQSSAYIEAANSILSDKIMYASAHPFVDFKLALKNYEQLPLKPEVREKVMYKNAAKVLGLSDGTFSASKAMDAQEVQMIIENVIAQLSQRGLLANR
- soluble on expression in E. coli: not soluble

Sequence: CLKEGGDSNSEKFIVGTNATYPPFEFVDKRGEVVGFDIDLAREISNKLGKTLDVREFSFDALILNLKQHRIDAVITGMSITPSRLKEILMIPYYGEEIKHLVLVFKGENKHPLPLTQYRSVAVQTGTYQEAYLQSLSEVHIRSFDSTLEVLMEVMHGKSPVAVLEPSIAQVVLKDFPALSTATIDLPEDQWVLGYGIGVASDRPALALKIEAAVQEIRKEGVLAELEQKWGLNNLEHHHHHH
- soluble on expression in E. coli: soluble

Sequence: MGSDKIHHHHHHMHTFLASSSMQLSVPPNHFQSMKIVALGDSLIYGFGDPEKGGWIEQLRRWWMLPDSAGHVLYNLGVRGDRTQQVAQRLEVEFRHRGELRNRVPDLIILSVGVNDSARLARPDGRSYTDFTLFEKEIATLLDLAQQLCPVLFVGMVPVDEAKMPFLDCFYYNHVDQYRYKEATRLACTKRQIPYLDIFEKWMERGENWRLKRLSEDGLHPNTLGYQALLEDVINWDAIHSVGFANAAYHSQFNYHLKQS
- soluble on expression in E. coli: not soluble

Sequence: MNNIENVDQKLIENLANLMSSEVRAKIYIYLRKYNKSTVDEIAGGTGIYPSTVRESILDMYNTGYVSREKMDKEGLGKKPYLYTAAAPSEIVRKISKNIQEKLNDLIMVDRRIESKELKIPFVPVKIVVDEKYRD
- soluble on expression in E. coli: not soluble

Sequence: MESSSTASQSGSRREATRQKLYEAAVTLIAEQGFSATTVDEIAERAGVAKGTVYYNFASKSVLFEELLRHGVGLLTASLRQAAERTAREGRGRVDALDAMIRAGLVFIDRYPAFTQLYVAELWRTNRAWQSTLLVVRQEAVAVVEGVLREGVASGEFSEDIDVPLTAAALVGMVLVAALDWKAFQPERSLDDVHAALSRLLQGRVSGRG
- soluble on expression in E. coli: not soluble

Sequence: KDCASDGTLSAVGSLETPEKKQSESSRGRKRKAENQNESSQGKSIGGRGHKISDYFEYQGGNGSSPVRGIPPAIRSPQNSHSHSTPSSSVRPNSPSPTALAFGDHPIVQPKQLSFKIIQTDLTMLKLAALESNKIQDLEKKEGRIDDLLRANCDLRRQIDEQQKLLEKYKERLNKCISMSKKLLIEKSTQEKLSSREKSMQDRLRLGHFTTVRHGASFTEQWTDGFAFQNLVKQQEWVNQQREDIERQRKLLAKRKPPTANNSQAPSTNSEPKQRKNKAVNGAENDPFVRPNLPQLLTLAEYHEQEEIFKLRLGHLKKEEAEIQAELERLERVRNLHIRELKRINNEDNSQFKDHPTLNERYLLLHLLGRGGFSEVYKAFDLYEQRYAAVKIHQLNKSWRDEKKENYHKHACREYRIHKELDHPRIVKLYDYFSLDTDTFCTVLEYCEGNDLDFYLKQHKLMSEKEARSIVMQIVNALRYLNEIKPPIIHYDLKPGNILLVDGTACGEIKITDFGLSKIMDDDSYGVDGMDLTSQGAGTYWYLPPECFVVGKEPPKISNKVDVWSVGVIFFQCLYGRKPFGHNQSQQDILQENTILKATEVQFPVKPVVSSEAKAFIRRCLAYRKEDRFDVHQLANDPYLLPHMRRSNSSGNLHMAGLTASPTPPSSSIITY
- soluble on expression in E. coli: soluble
